The values below come from article PMC4517634.

Test [1] concerns the target human cathepsin L (human).
Test [2] addresses human trypsin (human).
Test [3] addresses human cathepsin G (human) (UniProt P08311).
In test [4] the target is human thrombin (human).

Sequence of human cathepsin G (human) (P08311 21-244): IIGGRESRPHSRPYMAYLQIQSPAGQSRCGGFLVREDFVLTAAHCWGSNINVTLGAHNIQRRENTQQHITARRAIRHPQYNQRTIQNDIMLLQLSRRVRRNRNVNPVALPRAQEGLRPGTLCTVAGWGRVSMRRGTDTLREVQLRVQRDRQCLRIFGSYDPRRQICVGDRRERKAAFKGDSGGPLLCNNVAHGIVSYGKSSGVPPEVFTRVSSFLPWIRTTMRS

As to “recombinant His-tagged ANISERP protein (baculovirus system) (from UniProt F4MST7 1-397) (natural protein)”, the IC50 of inhibition of cathepsin L (0.83 nM) proteolytic activity on Z-Phe-Arg-AMC in test [1] was 217 nM. In test [2], this substance registered an IC50 of inhibition of trypsin (54 nM) proteolytic activity on Boc-Gln-Ala-Arg-AMC of 173 nM. This substance also came in with an IC50 of inhibition of cathepsin G (0.33 nM) proteolytic activity on N-succinyl-Ala-Ala-Phe-AMC in test [3] of 542 nM. For the same substance, in test [4], the IC50 of inhibition of thrombin (74 nM) proteolytic activity on Boc-Val-Arg-AMC after 10 min at 37 °C with ANISERP is 152 nM.
